Experimental data from patent US20210130436A1 (published 2021).

How the values were obtained:
[1] = target: T1, human PD-L1, expressed on CHO cells (human, UniProt Q9NZQ7 19-290); assay: flow cytometry on CHO cells stably expressing human PD-L1; PE anti-human Fc
T1 construct: Full-length surface expression construct transduced by lentivirus into CHO cells; also called huPD-L1; CD274

[2] = target: T2, human CTLA-4 (CTLA4), expressed on CHO cells (human, UniProt P16410 36-223); assay: flow cytometry on CHO cells stably expressing human CTLA-4; PE anti-human Fc
T2 construct: Full-length surface expression construct transduced by lentivirus into CHO cells; also called huCTLA4

[3] = target: T3, human PD-L1 expressed on CHO cells (human, UniProt Q9NZQ7 19-290); assay: flow cytometry, CHO cells stably expressing PD-L1; MFI relative to WT CD80 ECD-Fc (Abcam)
T3 construct: whole, on cells; Target on CHO cells stably expressing PD-L1; also called huPD-L1

[4] = target: T4, human CTLA4 expressed on CHO cells (human, UniProt P16410 36-223); assay: flow cytometry, CHO cells stably expressing CTLA4, Fc fusion at 33.3 nM
T4 construct: whole, on cells; Target on CHO cells stably expressing CTLA4; also called huCTLA4

[5] = target: T4, human CTLA4 expressed on CHO cells; assay: flow cytometry, CHO cells stably expressing CTLA4; MFI relative to WT CD80 ECD-Fc (Abcam)
[6] = target: T5, CD28 endogenously expressed on Jurkat/IL2 reporter cells (human, UniProt P10747 19-220); assay: flow cytometry, Jurkat cells (CD28), Fc fusion at 33.3 nM
T5 construct: whole, on cells; Target on Jurkat cells; also called Jurkats (CD28)

[7] = target: T3, human PD-L1 expressed on CHO cells; assay: flow cytometry; MFI on PD-L1 cells over MFI on CD28 (Jurkat) cells at 33.3 nM
[8] = target: T3, human PD-L1 expressed on CHO cells; assay: flow cytometry, CHO cells stably expressing PD-L1, Fc fusion at 33.3 nM
[9] = target: T5, CD28 endogenously expressed on …; assay: flow cytometry, Jurkat cells (CD28); MFI relative to WT CD80 ECD-Fc (Abcam)
[10] = target: T6, TIGIT (UniProt Q495A1 22-244); assay: flow cytometry on cells expressing TIGIT, Fc fusion at 100 nM
T6 construct: whole, on cells
T6 sequence (looked up): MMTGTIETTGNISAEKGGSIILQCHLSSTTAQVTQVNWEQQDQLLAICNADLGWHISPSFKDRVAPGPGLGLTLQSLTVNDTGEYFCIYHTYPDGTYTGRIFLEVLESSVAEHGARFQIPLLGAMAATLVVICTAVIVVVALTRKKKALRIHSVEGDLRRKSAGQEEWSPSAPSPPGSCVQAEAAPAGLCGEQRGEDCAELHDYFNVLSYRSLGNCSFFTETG

[11] = target: T7, CD226 (UniProt Q15762 19-336); assay: flow cytometry on cells expressing CD226, Fc fusion at 100 nM
T7 construct: whole, on cells
T7 sequence (looked up): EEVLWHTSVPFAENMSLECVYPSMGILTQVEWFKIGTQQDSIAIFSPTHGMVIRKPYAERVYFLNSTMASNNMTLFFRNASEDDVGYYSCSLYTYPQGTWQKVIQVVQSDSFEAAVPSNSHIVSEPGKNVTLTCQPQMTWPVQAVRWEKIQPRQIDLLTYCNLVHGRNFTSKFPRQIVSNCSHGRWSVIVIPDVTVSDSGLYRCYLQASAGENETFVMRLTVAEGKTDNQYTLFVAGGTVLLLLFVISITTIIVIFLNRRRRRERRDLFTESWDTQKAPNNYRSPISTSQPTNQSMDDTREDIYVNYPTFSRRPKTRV

[12] = target: T8, CD96 (UniProt P40200 22-585, limits assumed); assay: flow cytometry on cells expressing CD96, Fc fusion at 100 nM
T8 construct: whole, on cells
T8 sequence (looked up): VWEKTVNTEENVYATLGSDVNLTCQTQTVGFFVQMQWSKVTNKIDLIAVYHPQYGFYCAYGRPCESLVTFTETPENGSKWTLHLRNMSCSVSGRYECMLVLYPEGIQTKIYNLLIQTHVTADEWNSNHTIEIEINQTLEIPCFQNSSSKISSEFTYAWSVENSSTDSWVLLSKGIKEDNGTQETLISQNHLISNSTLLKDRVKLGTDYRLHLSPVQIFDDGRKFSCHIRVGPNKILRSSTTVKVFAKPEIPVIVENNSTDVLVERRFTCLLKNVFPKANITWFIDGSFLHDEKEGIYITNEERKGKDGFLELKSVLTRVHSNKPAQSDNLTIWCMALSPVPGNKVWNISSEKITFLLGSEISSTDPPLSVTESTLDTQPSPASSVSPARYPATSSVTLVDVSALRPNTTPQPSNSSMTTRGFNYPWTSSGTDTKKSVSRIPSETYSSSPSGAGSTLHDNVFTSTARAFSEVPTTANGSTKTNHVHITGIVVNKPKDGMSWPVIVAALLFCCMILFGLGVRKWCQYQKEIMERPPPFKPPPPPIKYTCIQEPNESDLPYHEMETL

T2 sequence (P16410 36-223): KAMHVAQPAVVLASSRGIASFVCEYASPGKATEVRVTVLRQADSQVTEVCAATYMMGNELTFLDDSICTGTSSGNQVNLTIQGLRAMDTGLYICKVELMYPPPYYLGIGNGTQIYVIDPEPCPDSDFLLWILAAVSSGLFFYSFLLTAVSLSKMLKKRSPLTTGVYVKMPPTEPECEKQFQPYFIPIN
T4 sequence (P16410 36-223): as above
T3 sequence (Q9NZQ7 19-290): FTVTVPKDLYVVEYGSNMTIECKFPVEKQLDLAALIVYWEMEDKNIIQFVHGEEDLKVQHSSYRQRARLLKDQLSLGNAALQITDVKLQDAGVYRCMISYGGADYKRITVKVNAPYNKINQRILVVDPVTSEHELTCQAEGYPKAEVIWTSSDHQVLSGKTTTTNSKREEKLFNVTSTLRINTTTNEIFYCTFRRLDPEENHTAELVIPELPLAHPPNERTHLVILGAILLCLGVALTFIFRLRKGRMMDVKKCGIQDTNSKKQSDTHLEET
T1 sequence (Q9NZQ7 19-290): as above

Binder	Fold change to WT CD80 [3] [fold]	MFI at 33.3 nM [4] [MFI]	Fold change to WT CD80 [5] [fold]	MFI at 33.3 nM [6] [MFI]	Ratio of PDL1:CD28 [7] [ratio]	MFI at 33.3 nM [8] [MFI]	Fold change to WT CD80 [9] [fold]	MFI at 100 nM [10] [MFI]	MFI at 100 nM [11] [MFI]	MFI at 100 nM [12] [MFI]	also measured
variant CD80 IgV-Fc E35D/M43I/M47V/K89N (Fc fusion, not shown: small tags and cut ends; a dimerising Fc or GST, Fc fusion of the variant IgV) VIHVTKEVKEVATLSCGHNVSVEELAQTRIYWQKDKKMVLTMISGDVNIWPEYKNRTIFDITNNLSIVILALRPSDEGTYECVVLKYENDAFKREHLAEVTLSVKAD	–	–	–	–	–	–	–	–	–	–	MFI at 33.3 nM [1]: 19200 MFI; MFI at 33.3 nM [2]: 278000 MFI
CD80 E35D/M47V/V68M/L85Q/K89N IgV-Fc (Fc fusion, not shown: small tags and cut ends; a dimerising Fc or GST) VIHVTKEVKEVATLSCGHNVSVEELAQTRIYWQKDKKMVLTMMSGDVNIWPEYKNRTIFDITNNLSIMILALRPSDEGTYECVVQKYENDAFKREHLAEVTLSVKAD	94.4	30300	0.7	246	49.1	12100	0.3	–	–	–	–
CD80 N48K/V68M IgV-Fc (Fc fusion, not shown: small tags and cut ends; a dimerising Fc or GST) VIHVTKEVKEVATLSCGHNVSVEELAQTRIYWQKEKKMVLTMMSGDMKIWPEYKNRTIFDITNNLSIMILALRPSDEGTYECVVLKYEKDAFKREHLAEVTLSVKAD	5.9	2340	0.1	118	6.4	754	0.2	–	–	–	–
CD80 E35D/N48K/K89N IgV-Fc (Fc fusion, not shown: small tags and cut ends; a dimerising Fc or GST) VIHVTKEVKEVATLSCGHNVSVEELAQTRIYWQKDKKMVLTMMSGDMKIWPEYKNRTIFDITNNLSIVILALRPSDEGTYECVVLKYENDAFKREHLAEVTLSVKAD	45	34700	0.9	411	14	5770	0.6	–	–	–	–
variant CD80 IgV-Fc E35D/M47V/T62A/A71D/K93E (Fc fusion, not shown: small tags and cut ends; a dimerising Fc or GST, Fc fusion of the variant IgV) VIHVTKEVKEVATLSCGHNVSVEELAQTRIYWQKDKKMVLTMMSGDVNIWPEYKNRTIFDIANNLSIVILDLRPSDEGTYECVVLKYEKDAFEREHLAEVTLSVKAD	–	–	–	–	–	–	–	–	–	–	MFI at 33.3 nM [1]: 693 MFI; MFI at 33.3 nM [2]: 226000 MFI
CD80 M47V/N48K/K89N IgV-Fc (Fc fusion, not shown: small tags and cut ends; a dimerising Fc or GST) VIHVTKEVKEVATLSCGHNVSVEELAQTRIYWQKEKKMVLTMMSGDVKIWPEYKNRTIFDITNNLSIVILALRPSDEGTYECVVLKYENDAFKREHLAEVTLSVKAD	18.5	42100	1	366	6.5	2370	0.5	–	–	–	–
CD80 E35D/M47V/N48K/V68M/L85Q IgV-Fc (Fc fusion, not shown: small tags and cut ends; a dimerising Fc or GST) VIHVTKEVKEVATLSCGHNVSVEELAQTRIYWQKDKKMVLTMMSGDVKIWPEYKNRTIFDITNNLSIMILALRPSDEGTYECVVQKYEKDAFKREHLAEVTLSVKAD	81.9	26100	0.6	118	88.8	10500	0.2	–	–	–	–
variant CD80 IgV-Fc E35D/M38T/M43V/M47V/N48R/L85Q (Fc fusion, not shown: small tags and cut ends; a dimerising Fc or GST, Fc fusion of the variant IgV) VIHVTKEVKEVATLSCGHNVSVEELAQTRIYWQKDKKTVLTMVSGDVRIWPEYKNRTIFDITNNLSIVILALRPSDEGTYECVVQKYEKDAFKREHLAEVTLSVKAD	–	–	–	–	–	–	–	–	–	–	MFI at 33.3 nM [1]: 21800 MFI; MFI at 33.3 nM [2]: 204000 MFI
CD80 M47V/N48K/V68M IgV-Fc (Fc fusion, not shown: small tags and cut ends; a dimerising Fc or GST) VIHVTKEVKEVATLSCGHNVSVEELAQTRIYWQKEKKMVLTMMSGDVKIWPEYKNRTIFDITNNLSIMILALRPSDEGTYECVVLKYEKDAFKREHLAEVTLSVKAD	113	34600	0.9	641	22.6	14500	0.9	–	–	–	–
CD155 S42A variant IgV-Fc fusion (Fc fusion, not shown: a dimerising Fc or GST) WPPPGTGDVVVQAPTQVPGFLGDSVTLPCYLQVPNMEVTHVAQLTWARHGESGSMAVFHQTQGPSYSESKRLEFVAARLGAELRNASLRMFGLRVEDEGNYTCLFVTFPQGSRSVDIWLRVL	–	–	–	–	–	–	–	1930	2190	1620	–
CD155 S42G/S52L/Q62F/L104Q variant IgV-Fc fusion (Fc fusion, not shown: a dimerising Fc or GST) WPPPGTGDVVVQAPTQVPGFLGDSVTLPCYLQVPNMEVTHVGQLTWARHGELGSMAVFHQTFGPSYSESKRLEFVAARLGAELRNASLRMFGLRVEDEGNYTCQFVTFPQGSRSVDIWLRVL	–	–	–	–	–	–	–	1920	2160	1640	–
CD155 S42G/S52Q/L104E/G111R variant IgV-Fc fusion (Fc fusion, not shown: a dimerising Fc or GST) WPPPGTGDVVVQAPTQVPGFLGDSVTLPCYLQVPNMEVTHVGQLTWARHGEQGSMAVFHQTQGPSYSESKRLEFVAARLGAELRNASLRMFGLRVEDEGNYTCEFVTFPQRSRSVDIWLRVL	–	–	–	–	–	–	–	2010	2020	–	–
CD155 S42L variant IgV-Fc fusion (Fc fusion, not shown: a dimerising Fc or GST) WPPPGTGDVVVQAPTQVPGFLGDSVTLPCYLQVPNMEVTHVLQLTWARHGESGSMAVFHQTQGPSYSESKRLEFVAARLGAELRNASLRMFGLRVEDEGNYTCLFVTFPQGSRSVDIWLRVL	–	–	–	–	–	–	–	1930	2190	1620	–
CD155 S42N variant IgV-Fc fusion (Fc fusion, not shown: a dimerising Fc or GST) WPPPGTGDVVVQAPTQVPGFLGDSVTLPCYLQVPNMEVTHVNQLTWARHGESGSMAVFHQTQGPSYSESKRLEFVAARLGAELRNASLRMFGLRVEDEGNYTCLFVTFPQGSRSVDIWLRVL	–	–	–	–	–	–	–	1820	1910	1690	–
CD155 S42V/S52E variant IgV-Fc fusion (Fc fusion, not shown: a dimerising Fc or GST) WPPPGTGDVVVQAPTQVPGFLGDSVTLPCYLQVPNMEVTHVVQLTWARHGEEGSMAVFHQTQGPSYSESKRLEFVAARLGAELRNASLRMFGLRVEDEGNYTCLFVTFPQGSRSVDIWLRVL	–	–	–	–	–	–	–	2060	2270	2530	–
CD155 S42C/S52M/Q62F variant IgV-Fc fusion (Fc fusion, not shown: a dimerising Fc or GST) WPPPGTGDVVVQAPTQVPGFLGDSVTLPCYLQVPNMEVTHVCQLTWARHGEMGSMAVFHQTFGPSYSESKRLEFVAARLGAELRNASLRMFGLRVEDEGNYTCLFVTFPQGSRSVDIWLRVL	–	–	–	–	–	–	–	1860	2080	1480	–
CD155 S42N/S52E/V57L/L104E variant IgV-Fc fusion (Fc fusion, not shown: a dimerising Fc or GST) WPPPGTGDVVVQAPTQVPGFLGDSVTLPCYLQVPNMEVTHVNQLTWARHGEEGSMALFHQTQGPSYSESKRLEFVAARLGAELRNASLRMFGLRVEDEGNYTCEFVTFPQGSRSVDIWLRVL	–	–	–	–	–	–	–	1780	1740	1540	–
